For series [1], the target named is T1, CytR DNA-binding domain wild type (UniProt P0ACN7 1-66).
T1 sequence: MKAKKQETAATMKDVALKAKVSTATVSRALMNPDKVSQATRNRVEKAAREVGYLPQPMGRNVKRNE
Put plainly: fluorescence anisotropy.

Series [2] addresses T2, CytR DNA-binding domain double mutant (DM) (UniProt P0ACN7 1-66, A29V;A48M).
T2 sequence: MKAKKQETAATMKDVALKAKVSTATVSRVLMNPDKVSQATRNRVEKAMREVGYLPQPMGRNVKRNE
Put plainly: fluorescence anisotropy.

Consider 1 molecule from publication PMC6542653.

B1: udp half-site (udpO) (dsDNA)
DNA 1: ATTTATGCAACGCA
DNA 2: TGCGTTGCATAAAT
Regarding B1, the binding result in series [1] and in series [2] was “binds” each time.
